Measured values taken from patent publication US20260001953A1 (TWIST BIOSCIENCE, published 2026).

T1: mouse CD117 (mouse, UniProt P05532)
T1 construct: antigen of the Carterra SPR kinetics; also called murine CD117
T1 sequence (receptor, looked up): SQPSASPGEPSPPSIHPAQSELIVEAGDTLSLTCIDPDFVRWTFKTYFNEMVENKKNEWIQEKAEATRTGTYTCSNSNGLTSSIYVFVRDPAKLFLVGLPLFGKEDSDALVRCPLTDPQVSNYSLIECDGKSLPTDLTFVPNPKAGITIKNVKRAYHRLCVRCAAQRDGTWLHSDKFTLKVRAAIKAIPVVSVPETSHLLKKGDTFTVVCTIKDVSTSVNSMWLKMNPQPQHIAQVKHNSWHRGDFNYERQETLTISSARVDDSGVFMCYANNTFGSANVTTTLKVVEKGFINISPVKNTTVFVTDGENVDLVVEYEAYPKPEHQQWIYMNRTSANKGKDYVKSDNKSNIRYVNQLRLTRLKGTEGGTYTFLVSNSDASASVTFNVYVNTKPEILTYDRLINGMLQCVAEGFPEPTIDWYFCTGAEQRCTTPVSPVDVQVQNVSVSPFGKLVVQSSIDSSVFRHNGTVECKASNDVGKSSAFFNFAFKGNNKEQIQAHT


Experiments:
cyno CD117 = target: T2, cyno CD117 (Macaca fascicularis, UniProt A0A7N9CP24); experiment: Carterra SPR, cyno CD117
T2 construct: antigen of the Carterra SPR kinetics; also called cynomolgus monkey CD117
Protocol: (§1) To further evaluate the antibodies discovered during the screens, 21 clones were selected for detailed characterization and were analyzed for target binding kinetics by a Carterra SPR instrument. The binding kinetics of the anti-CD117 antibodies for human CD117, cynomolgus monkey CD117, and murine CD117 are shown in FIG. 29A-29B.

mouse CD117 = target: T1, mouse CD117; experiment: Carterra SPR, mouse CD117
Protocol: as §1

[1] = target: T3, CD117 transiently expressed on Expi293 cells (UniProt P10721 26-976, limits assumed); experiment: FACS cell binding, Expi293 transiently expressing CD117
T3 construct: whole, on cells; Two cassettes are described (P2A mVenus and direct mVenus fusion); also called CD117 transient cells; the transient cell line
Protocol: (§2) The transient expression of CD117 was validated with a control antibody, Expi293 (FIGS. 17A-17B). Expi293, […], was transiently transfected with CD117 48-hours post-transfection. The secondary antibody used was APC Goat anti-human IgG (diluted 1:400). 100,000 cells per well were blocked with 1×PBS+0.5% BSA for 1 hour, stained with 100 μL of the primary antibody for 1 hour, and stained with the secondary antibody for one hour, all with 3× washes in between each staining.

[2] = target: T3, CD117 transiently expressed on Expi293 …; experiment: FACS, MFI expressing / parental cells
Protocol: as §2

[3] = target: T4, Cluster of differentiation 117 (CD117), antigen of epitope binning and ELISA (UniProt P10721 26-520, limits assumed); experiment: Carterra SPR, human CD117
T4 construct: also called tyrosine-protein kinase KIT; mast/stem cell growth factor receptor (SCFR)
Protocol: as §1

T2 sequence (A0A7N9CP24 entry or part of it): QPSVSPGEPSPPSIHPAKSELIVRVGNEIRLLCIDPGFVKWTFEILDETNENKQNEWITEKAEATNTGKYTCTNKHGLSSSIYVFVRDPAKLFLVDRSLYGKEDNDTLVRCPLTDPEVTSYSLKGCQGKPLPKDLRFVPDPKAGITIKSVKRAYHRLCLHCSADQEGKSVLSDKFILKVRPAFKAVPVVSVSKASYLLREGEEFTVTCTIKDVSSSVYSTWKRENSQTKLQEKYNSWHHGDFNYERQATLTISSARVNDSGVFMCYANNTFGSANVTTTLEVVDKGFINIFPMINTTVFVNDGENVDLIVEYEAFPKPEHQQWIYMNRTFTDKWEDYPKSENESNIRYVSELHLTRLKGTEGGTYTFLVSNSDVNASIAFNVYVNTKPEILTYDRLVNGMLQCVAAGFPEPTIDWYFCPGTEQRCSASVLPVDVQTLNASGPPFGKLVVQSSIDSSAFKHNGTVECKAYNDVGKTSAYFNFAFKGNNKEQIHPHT
T4 sequence (P10721 26-520 limits assumed): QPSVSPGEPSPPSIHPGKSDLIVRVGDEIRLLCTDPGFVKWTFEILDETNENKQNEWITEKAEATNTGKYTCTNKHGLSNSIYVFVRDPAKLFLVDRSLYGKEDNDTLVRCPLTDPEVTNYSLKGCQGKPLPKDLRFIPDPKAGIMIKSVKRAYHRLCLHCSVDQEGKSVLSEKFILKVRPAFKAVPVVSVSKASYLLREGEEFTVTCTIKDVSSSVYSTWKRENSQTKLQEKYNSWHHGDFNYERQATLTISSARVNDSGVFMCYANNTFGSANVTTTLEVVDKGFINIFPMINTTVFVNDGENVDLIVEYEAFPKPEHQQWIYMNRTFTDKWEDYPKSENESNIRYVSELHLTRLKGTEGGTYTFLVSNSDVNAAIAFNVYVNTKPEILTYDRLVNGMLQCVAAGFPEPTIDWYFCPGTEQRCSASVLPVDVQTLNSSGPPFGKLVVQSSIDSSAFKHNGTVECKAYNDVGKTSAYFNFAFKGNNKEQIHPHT
T3 sequence (P10721 26-976 limits assumed): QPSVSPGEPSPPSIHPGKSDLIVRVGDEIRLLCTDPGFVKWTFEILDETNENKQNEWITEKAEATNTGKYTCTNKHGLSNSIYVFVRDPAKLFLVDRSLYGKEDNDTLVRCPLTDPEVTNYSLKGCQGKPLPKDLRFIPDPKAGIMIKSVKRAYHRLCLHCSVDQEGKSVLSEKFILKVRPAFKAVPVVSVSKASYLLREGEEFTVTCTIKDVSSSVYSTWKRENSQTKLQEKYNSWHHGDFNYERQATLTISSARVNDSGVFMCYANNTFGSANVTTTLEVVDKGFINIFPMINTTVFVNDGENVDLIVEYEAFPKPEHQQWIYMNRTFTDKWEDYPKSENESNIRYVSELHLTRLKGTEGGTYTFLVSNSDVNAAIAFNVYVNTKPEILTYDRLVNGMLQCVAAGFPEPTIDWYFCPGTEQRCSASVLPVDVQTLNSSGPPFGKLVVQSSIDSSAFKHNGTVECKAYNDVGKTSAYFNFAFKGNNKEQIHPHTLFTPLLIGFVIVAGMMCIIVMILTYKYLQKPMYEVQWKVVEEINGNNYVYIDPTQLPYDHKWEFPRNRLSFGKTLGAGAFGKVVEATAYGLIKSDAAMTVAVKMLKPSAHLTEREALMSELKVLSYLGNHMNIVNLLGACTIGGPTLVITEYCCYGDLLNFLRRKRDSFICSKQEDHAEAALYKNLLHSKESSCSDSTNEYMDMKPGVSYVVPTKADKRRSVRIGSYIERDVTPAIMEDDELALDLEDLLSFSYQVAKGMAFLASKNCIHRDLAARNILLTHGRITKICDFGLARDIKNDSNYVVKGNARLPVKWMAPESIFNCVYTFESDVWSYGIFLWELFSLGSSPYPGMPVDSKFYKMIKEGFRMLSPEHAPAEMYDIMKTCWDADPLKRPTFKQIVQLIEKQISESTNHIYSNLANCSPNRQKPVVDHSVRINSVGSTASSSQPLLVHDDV

Kd (cyno CD117) | koff (cyno CD117) | kon (cyno CD117) | binding result (mouse CD117) | EC50 [1] | MFI Ratio [2] | Kd [3] | koff [3] | kon [3] | binding result [3] | Binder
480 nM | 0.156 s⁻¹ | 324000 M⁻¹ s⁻¹ | no binding | 11 nM | 18.6 | 5.17 nM | 0.00877 s⁻¹ | 1.7e+06 M⁻¹ s⁻¹ |  | CD117-13 (antibody, human IgG1, kappa, V domains shown, detected with anti-human IgG in FACS) VH: EVQLLESGGGLVQPGGSLRLSCAASGFTLTSYAMSWVRQAPGKGLEWVSTISGSGGYTYYADSVKGRFTISRDNSKNTLYLQMNSLRAEDTAVYYCARDSGYDRGLDYWGQGTLVTVSS VL: DIQMTQSPSSLSASVGDRVTITCRASQNIYTYLNWYQQKPGKAPKLLIYDASSLHSGVPSRFSGSGSGTDFTLTISSLQPEDFATYYCQQSSSTPYTFGGGTKVEIKR
5.02 nM | 0.00679 s⁻¹ | 1.35e+06 M⁻¹ s⁻¹ | no binding | 20 nM | 16.2 | 2.53 nM | 0.00336 s⁻¹ | 1.33e+06 M⁻¹ s⁻¹ |  | CD117-18 (antibody, human IgG1, kappa, V domains shown, detected with anti-human IgG in FACS) VH: EVQLLESGGGLVQPGGSLRLSCAASGFTFSDYSMNWVRQAPGKGLEWVSAITGSGGNTFYADSVKGRFTISRDNSKNTLYLQMNSLRAEDTAVYYCARSNYEQDVFDIWGQGTLVTVSS VL: DIQMTQSPSSLSASVGDRVTITCRASQTIYRYLNWYQQKPGKAPKLLIYDASDLQSGVPSRFSGSGSGTDFTLTISSLQPEDFATYYCQQSYSIPITFGGGTKVEIKR
26600 nM | 0.916 s⁻¹ | 34400 M⁻¹ s⁻¹ | no binding | 91.3 nM | 21.2 |  |  |  | no binding | CD117-10 (antibody, human IgG1, kappa, V domains shown, detected with anti-human IgG in FACS) VH: EVQLLESGGGLVQPGGSLRLSCAASGFIFSSYAMTWVRQAPGKGLEWVSSISGRGGNTYYADSVKGRFTISRDNSKNTLYLQMNSLRAEDTAVYYCAKMMDDFYDAFNMWGQGTLVTVSS VL: DIQMTQSPSSLSASVGDRVTITCRASQSIRTYLNWYQQKPGKAPKLLIYDASSLESGVPSRFSGSGSGTDFTLTISSLQPEDFATYYCQQSFTTPYTFGGGTKVEIKR
338 nM | 0.0681 s⁻¹ | 201000 M⁻¹ s⁻¹ | no binding | 4.31 nM | 17.2 | 270 nM | 0.0679 s⁻¹ | 252000 M⁻¹ s⁻¹ |  | CD117-11 (antibody, human IgG1, kappa, V domains shown, detected with anti-human IgG in FACS) VH: EVQLLESGGGLVQPGGSLRLSCAASGFTFGNFAMSWVRQAPGKGLEWVSLISGSGGNTYYADSVKGRFTISRDNSKNTLYLQMNSLRAEDTAVYYCARGDGVNGFDYWGQGTLVTVSS VL: DIQMTQSPSSLSASVGDRVTITCRASQSIPTYLNWYQQKPGKAPKLLIYATSTLESGVPSRFSGSGSGTDFTLTISSLQPEDFATYYCQQTYSTPYTFGGGTKVEIKR
 |  |  |  | 3.42 nM | 10.5 |  |  |  | no binding | CD117-4 (antibody, human IgG1, kappa, V domains shown, detected with anti-human IgG in FACS) VH: EVQLLESGGGLVQPGGSLRLSCAASGFTFSRSAMSWVRQAPGKGLEWVSAISAGGGNTYYADSVKGRFTISRDNSKNTLYLQMNSLRAEDTAVYYCAREQDLWSGTFDYWGQGTLVTVSS VL: DIQMTQSPSSLSASVGDRVTITCRARQSISSYLNWYQQKPGKAPKLLIYDASSLRSGVPSRFSGSGSGTDFTLTISSLQPEDFATYYCQQSYKTPWTFGGGTKVEIKR
92.6 nM | 0.0673 s⁻¹ | 727000 M⁻¹ s⁻¹ | no binding | 7.58 nM | 20.1 | 3 nM | 0.00406 s⁻¹ | 1.35e+06 M⁻¹ s⁻¹ |  | CD117-17 (antibody, human IgG1, kappa, V domains shown, detected with anti-human IgG in FACS) VH: EVQLLESGGGLVQPGGSLRLSCAASGFTFSDYPMSWVRQAPGKGLEWVSAIGGSGGDTYYADSVKGRFTISRDNSKNTLYLQMNSLRAEDTAVYYCARGAYDGEGFDYWGQGTLVTVSS VL: DIQMTQSPSSLSASVGDRVTITCRASQTISGYLNWYQQKPGKAPKLLIYDASTLQRGVPSRFSGSGSGTDFTLTISSLQPEDFATYYCQQNYRTPFTFGGGTKVEIKR
